± gives the uncertainty stated by the source.
B1: Probable E3 ubiquitin-protein ligase MID2, residues 191 to 235; numbered along this chain, Q9UJV3 (parent)
chain: RGITCLDHENEKVNMYCVSDDQLICALCKLVGRHRDHQVASLNDR
B2: Zinc finger homeobox protein 3, residues 2244 to 2299; numbered along this chain, Q15911 (parent)
chain: SSRTRFTDYQLRVLQDFFDANAYPKDDEFEQLSNLLNLPTRVIVVWFQNARQKARK

Variants of: B1
Assay: abundance fitness (aPCA) (normalised: wild type 0, dead -1); higher = more abundant; growth selection in yeast, the domain comes from the species named
Settings: Homo sapiens

Variant | abundance fitness
RGITCLDHENEKVNMYCVSDDQLICALCKLVGRHRDHQVQSLNDR | 0.09 ± 0.076
RGITCLDHENEKVNMYCVSDDQLICALCKLVGRHRDHQVKSLNDR | -0.138 ± 0.12
RGITCLDHENEKVNMYCVSDDQLICALCKLVGRHRDHQVSSLNDR | 0.063 ± 0.057
RGITCLDHENEKVNMYCVSDDQLICALCKLVGRHRDHQVRSLNDR | 0.014 ± 0.052
RGITCLDHENEKVNMYCVSDDQLICALCKLVGRHRDHQVGSLNDR | 0.003 ± 0.052
RGITCLDHENEKVNMYCVSDDQLICALCKLVGRHRDHQVFSLNDR | -0.176 ± 0.1
RGITCLDHENEKVNMYCVSDDQLICALCKLVGRHRDHQVCSLNDR | -0.063 ± 0.068
RGITCLDHENEKVNMYCVSDDQLICALCKLVGRHRDHQVTSLNDR | -0.068 ± 0.12
RGITCLDHENEKVNMYCVSDDQLICALCKLVGRHRDHQVNSLNDR | -0.082 ± 0.23
RGITCLDHENEKVNMYCVSDDQLICALCKLVGRHRDHQVAFLNDR | -0.385 ± 0.14
RGITCLDHENEKVNMYCVSDDQLICALCKLVGRHRDHQVAKLNDR | -0.102 ± 0.074
RGITCLDHENEKVNMYCVSDDQLICALCKLVGRHRDHQVACLNDR | -0.071 ± 0.085
RGITCLDHENEKVNMYCVSDDQLICALCKLVGRHRDHQVAVLNDR | -0.298 ± 0.061
RGITCLDHENEKVNMYCVSDDQLICALCKLVGRHRDHQVANLNDR | 0.1 ± 0.35
RGITCLDHENEKVNMYCVSDDQLICALCKLVGRHRDHQVAYLNDR | -0.502 ± 0.45
RGITCLDHENEKVNMYCVSDDQLICALCKLVGRHRDHQVAWLNDR | -0.458 ± 0.1
RGITCLDHENEKVNMYCVSDDQLICALCKLVGRHRDHQVATLNDR | -0.001 ± 0.062
RGITCLDHENEKVNMYCVSDDQLICALCKLVGRHRDHQVAMLNDR | -0.222 ± 0.12
RGITCLDHENEKVNMYCVSDDQLICALCKLVGRHRDHQVALLNDR | -0.157 ± 0.068
RGITCLDHENEKVNMYCVSDDQLICALCKLVGRHRDHQVAILNDR | -0.481 ± 0.16
RGITCLDHENEKVNMYCVSDDQLICALCKLVGRHRDHQVAPLNDR | 0.061 ± 0.087
RGITCLDHENEKVNMYCVSDDQLICALCKLVGRHRDHQVARLNDR | -0.039 ± 0.053
RGITCLDHENEKVNMYCVSDDQLICALCKLVGRHRDHQVADLNDR | 0.087 ± 0.074

Variant | abundance fitness
RGITCLDHENEKVNMYCVSDDQLICALCKLVGRHRDHQVAGLNDR | -0.021 ± 0.055
RGITCLDHENEKVNMYCVSDDQLICALCKLVGRHRDHQVAHLNDR | -0.135 ± 0.14
RGITCLDHENEKVNMYCVSDDQLICALCKLVGRHRDHQVAALNDR | -0.08 ± 0.063
RGITCLDHENEKVNMYCVSDDQLICALCKLVGRHRDHQYASLNDR | -0.335 ± 0.2
RGITCLDHENEKVNMYCVSDDQLICALCKLVGRHRDHQWASLNDR | -0.23 ± 0.076
RGITCLDHENEKVNMYCVSDDQLICALCKLVGRHRDHQVASLHDR | -0.016 ± 0.079
RGITCLDHENEKVNMYCVSDDQLICALCKLVGRHRDHQVASLADR | 0.1 ± 0.059
RGITCLDHENEKVNMYCVSDDQLICALCKLVGRHRDHQVASLWDR | -0.405 ± 0.088
RGITCLDHENEKVNMYCVSDDQLICALCKLVGRHRDHQVASLQDR | -0.043 ± 0.068
RGITCLDHENEKVNMYCVSDDQLICALCKLVGRHRDHQVASLSDR | -0.022 ± 0.057
RGITCLDHENEKVNMYCVSDDQLICALCKLVGRHRDHQVASLEDR | 0.192 ± 0.065
RGITCLDHENEKVNMYCVSDDQLICALCKLVGRHRDHQVASLTDR | 0.008 ± 0.087
RGITCLDHENEKVNMYCVSDDQLICALCKLVGRHRDHQVASLPDR | 0.062 ± 0.064
RGITCLDHENEKVNMYCVSDDQLICALCKLVGRHRDHQVASLKDR | 0.164 ± 0.071
RGITCLDHENEKVNMYCVSDDQLICALCKLVGRHRDHQVASLCDR | -0.097 ± 0.1
RGITCLDHENEKVNMYCVSDDQLICALCKLVGRHRDHQVASLLDR | -0.126 ± 0.067
RGITCLDHENEKVNMYCVSDDQLICALCKLVGRHRDHQVASLVDR | -0.042 ± 0.086
RGITCLDHENEKVNMYCVSDDQLICALCKLVGRHRDHQVASLMDR | -0.252 ± 0.19
RGITCLDHENEKVNMYCVSDDQLICALCKLVGRHRDHQVASLIDR | -0.275 ± 0.2
RGITCLDHENEKVNMYCVSDDQLICALCKLVGRHRDHQVASLDDR | -0.036 ± 0.12
RGITCLDHENEKVNMYCVSDDQLICALCKLVGRHRDHQVASLGDR | -0.011 ± 0.056
RGITCLDHENEKVNMYCVSDDQLICALCKLVGRHRDHQVASLRDR | -0.154 ± 0.054

Variants of: B2
Assay: as above
Settings: Homo sapiens

Variant | abundance fitness
SSRTRFTDYQKRVLQDFFDANAYPKDDEFEQLSNLLNLPTRVIVVWFQNARQKARK | -0.146 ± 0.18
SKRTRFTDYQLRVLQDFFDANAYPKDDEFEQLSNLLNLPTRVIVVWFQNARQKARK | -0.194 ± 0.18
SSRTRFTDYQLRVLQDFFDANAYPKDDEYEQLSNLLNLPTRVIVVWFQNARQKARK | -0.052 ± 0.15
SSRTRFTDYQLRVLQDFFDANAYPKDDEFEQLSNLLNLPTRVIVVWFQNARQDARK | 0.202 ± 0.11
SSRTRFTDYQLRVLQDFFDANAYPKDDEFEQLSNLLNLPTRVIVVWFQNVRQKARK | -0.322 ± 0.08
SSRTRFTDYQLRVLQDTFDANAYPKDDEFEQLSNLLNLPTRVIVVWFQNARQKARK | -0.074 ± 0.12
SSRTRFTDYQLRVLQIFFDANAYPKDDEFEQLSNLLNLPTRVIVVWFQNARQKARK | -0.22 ± 0.25
SSRTRFTDYQLRVLQGFFDANAYPKDDEFEQLSNLLNLPTRVIVVWFQNARQKARK | -0.023 ± 0.077
SSRTRFTDYQLRVLQDFKDANAYPKDDEFEQLSNLLNLPTRVIVVWFQNARQKARK | -0.625 ± 0.14
SSRTRFTDYQLRVLQDFTDANAYPKDDEFEQLSNLLNLPTRVIVVWFQNARQKARK | -0.772 ± 0.14
SSRTRFTDYQLRVLQDFFDANAYPKDDEFEQLSNLLNLPTRVIVSWFQNARQKARK | 0.008 ± 0.074
